B1: OR4K15 (parent)
chain: GUUAACGGUCAUAGGCCAUGGAAACUAGGAGCACCAUUUCGCUGCCAGUGAAGAAAUGAACAAAGAAAAUCUGGGCCAGGCAGGCAUCAAAAGAAAUAGUCUUGCGCUCAACCAGAAAGUCUGUAAUCAUUUUAAGGGUA

Variants of: B1
Assay: self-cleavage, relative activity (ratio to wild type); higher = more cleavage; in vitro, sequencing; the parent is a self-cleaving ribozyme

In order of falling self-cleavage:
1. A18C A95G  2.19
2. U19A A51U  2.15
3. C17U A95G  2.06
4. A18G A89G  2.05
5. U19C C88A  2.03
6. A18U U133C  2.02
7. A18U A95G  1.96
8. A18G U39A  1.96
9. A18G A91U  1.94
10. U19C A92U  1.93
11. A18U A69G  1.92
12. A18G A134U  1.88
13. U19A C25U  1.86
14. A18G G48A  1.81
15. G15U U38A  1.8
16. A18U G28A  1.78
17. A18G U39C  1.77
18. A18U U132C  1.75
19. U19C A129C  1.72
20. A18G G44A  1.66
21. A18G U102C  1.64
22. U19A A96G  1.64
23. C17A A24G  1.64
24. C16U A55G  1.63
25. A18U A33C  1.61
26. A18U A89G  1.59
27. U19C A117G  1.58
28. A18G U19A  1.57
29. A18G G41A  1.53
30. A18C A52G  1.51
31. A18U U43G  1.5
32. A18U A140G  1.49
33. C17A  1.46
34. A18U U139C  1.45
35. A18C U43C  1.44
36. G15U U87A  1.44
37. C17U A47U  1.43
38. C16U U120C  1.42
39. A18U U43C  1.42
40. A18U U87C  1.41
41. U19C G28A  1.41
42. A18G A36G  1.4
43. A18U A51G  1.4
44. A18G A94U  1.4
45. U19C G136A  1.38
46. U19C A86G  1.37
47. A18U A69U  1.37
48. C17U A23G  1.37
49. U19C A68U  1.36
50. U19A A51G  1.36
51. A18U A140U  1.33
52. A18G U122C  1.32
53. A18G A110U  1.32
54. U19A A33C  1.31
55. A18U A24G  1.31
56. C17U A24U  1.29
57. C16A A22G  1.29
58. U19C A56G  1.29
59. A18U U38C  1.28
60. A18U A54G  1.28
61. A18G G138A  1.27
62. C16U A66U  1.27
63. C16U A96G  1.27
64. U19C A118G  1.27
65. A18G A56G  1.27
66. C16U A30G  1.27
67. C17U A18U  1.26
68. A18G A129G  1.25
69. U19C A68G  1.24
70. A18U A51U  1.24
71. C16A U39A  1.23
72. A18U A55C  1.22
73. A18G U57G  1.21
74. A18U A59G  1.2
75. A18U C42U  1.18
76. C17U U43A  1.18
77. A18G A68G  1.16
78. C16U A118G  1.16
79. C16U C85U  1.15
80. C17A A59U  1.14
81. C16U U57C  1.14
82. A18G U102A  1.13
83. A18G U103A  1.13
84. A18U A22G  1.12
85. C17U U124A  1.1
86. A18G A47U  1.1
87. C17A U103C  1.08
88. A18G A55G  1.07
89. A18G U19C  1.06
90. U19A U70C  1.06
91. C16G A95G  1.06
92. U19A U49A  1.05
93. C17U A135G  1.05
94. A18U A47G  1.05
95. A18C A68U  1.04
96. A18U U87A  1.04
97. A18G U37C  1.04
98. C17U A30G  1.03
99. C17U U38A  1.03
100. C17U U132C  1.02
101. A18U A96C  1.02
102. A18U U49G  1.01
103. A18G A30U  1.01
104. C16U A30U  1
105. A18G U87G  0.98
106. C17A A118G  0.97
107. U19A U102A  0.97
108. A18C U130C  0.96
109. A18C A140G  0.94
110. A18U U127C  0.91
111. A18U A89C  0.9
112. U19A U37C  0.9
113. C16A U57G  0.88
114. U19C C85U  0.88
115. A18G A30G  0.88
116. C17U  0.8
117. U19A U120C  0.79
118. U19A A89G  0.78
119. C16U U103C  0.77
120. C16U U38C  0.76
121. A18C A129G  0.75
122. U19A U103C  0.75
123. C16G A89G  0.74
124. C16U A110U  0.72
125. A18U A59U  0.69
126. U19A A82G  0.68
127. U19A U57C  0.67
128. U19C A126U  0.65
129. U19C C109U  0.63
130. C16U A78G  0.62
131. U19C A82G  0.61
132. A18U A33G  0.61
133. A18C A47G  0.59
134. C17U A114G  0.54
135. C16G A24G  0.51
136. A18U A78U  0.45
137. A18U C88U  0.43
138. C17U A129G  0.43
139. C16A G83U  0.41
140. A18G U72C  0.38
141. A18G U72A  0.37
142. A18U A114G  0.35
143. A18G A78G  0.33
144. U19A A110C  0.3
145. A18G C105U  0.29
146. U19A A24G  0.29
147. U19C A78U  0.28
148. A18G G79A  0.24
149. A18U A110C  0.23
150. G15U A82U  0.23
151. A18G C71U  0.22
152. C17A A78G  0.1
153. U19C A111U  0.07
154. U19C A114C  0.06
155. A18G U103G  0.05
156. A18U G79A  0.05
157. A18U C101A  0.05
158. C17U A110G  0.05
159. U19C G115A  0.03
160. U19A U108C  0.03
161. U19C C112A  0.02
162. A18G G104A  0.02
163. U19A A111G  0.02
164. U19A A111C  0.01
165. A18C U108C  0.01
166. U19C C113A  0
167. A18C U57C  0
